In test [1] the target is T1, recombinant cynomolgus monkey CD3 delta and epsilon domain protein (cynomolgus monkey, UniProt Q95LI5 22-117; Q95LI8 22-105, biotin labeled).
T1 construct: Biotin labeled and captured on a streptavidin coated ELISA plate; also called cynomolgus monkey recombinant CD3 protein, consisting of CD3 epsilon and CD3 delta chains
Kind of test: ELISA, recombinant antigen on plate.
Procedure: (§1) The y axis is the binding response expressed in optical density at 450 nm absorbance units. The x axis is the concentration of the molecules tested.
(§2) Biotin labeled cynomolgus monkey recombinant CD3 protein, consisting of CD3 epsilon and CD3 delta chains, was bound to a streptavidin coated ELISA plate to capture the antigen on the solid phase. Varying concentrations of the tested anti-CD3 antibody was then added to the coated plates and the bound antibodies were detected and quantified using standard ELISA protocols.

Test [2] concerns the target T2, recombinant human CD3 delta and epsilon domain protein (human, UniProt P07766 23-126; P04234 22-105, biotin labeled).
T2 construct: Biotin labeled and captured on a streptavidin coated ELISA plate; also called human recombinant CD3 protein, consisting of CD3 epsilon and CD3 delta chains
Kind of test: ELISA, biotinylated recombinant human CD3 epsilon/delta captured on a streptavidin plate, OD 450 nm. A general note: An ELISA detects its analyte on a solid surface through an enzyme-linked reagent.
Source text: Biotin labeled human recombinant CD3 protein, consisting of CD3 epsilon and CD3 delta chains, was bound to a streptavidin coated ELISA plate to capture the antigen on the solid phase.

For test [3], the target named is T1, recombinant cynomolgus monkey CD3 delta …. Kind of test: ELISA, biotinylated recombinant cynomolgus monkey CD3 epsilon/delta captured on a streptavidin plate, OD 450 nm.
Procedure: as §1, §2
Test [4] addresses T3, recombinant human CD38 protein (human, UniProt P28907 43-300, biotin labeled).
T3 construct: Biotin labeled and captured on streptavidin coated plates; also called human CD38 target
Kind of test: ELISA on recombinant human CD38, OD 450 nm.
Procedure: (§3) Biotin labeled recombinant CD38 protein was bound to streptavidin coated ELISA plates to capture the antigen on the solid phase. Varying concentrations of the tested anti-CD38 antibodies were then added to the coated plates and the bound antibodies were detected and quantified using standard ELISA protocols. […] Biotin labeled cynomolgus recombinant CD38 protein was bound to a streptavidin coated ELISA plate to capture the antigen on the solid phase. Varying concentrations of the tested anti-CD38 antibodies were then added to the coated plates and the bound antibodies were detected and quantified using standard ELISA protocols.

Test [5] concerns the target T4, recombinant cynomolgus monkey CD38 protein (cynomolgus monkey, UniProt Q5VAN0 44-301, biotin labeled).
T4 construct: Biotin labeled and captured on a streptavidin coated plate; also called cynomolgus monkey CD38 antigen; cynomolgus recombinant CD38 protein
Kind of test: ELISA, biotinylated recombinant cynomolgus monkey CD38 captured on a streptavidin plate, OD 450 nm.
Procedure: as §3

In test [6] the target is T5, recombinant mouse CD38 protein (mouse, UniProt P56528 45-304, limits assumed, biotin labeled).
T5 construct: also called mouse recombinant CD38 protein; mouse CD38 antigen
T5 sequence (looked up): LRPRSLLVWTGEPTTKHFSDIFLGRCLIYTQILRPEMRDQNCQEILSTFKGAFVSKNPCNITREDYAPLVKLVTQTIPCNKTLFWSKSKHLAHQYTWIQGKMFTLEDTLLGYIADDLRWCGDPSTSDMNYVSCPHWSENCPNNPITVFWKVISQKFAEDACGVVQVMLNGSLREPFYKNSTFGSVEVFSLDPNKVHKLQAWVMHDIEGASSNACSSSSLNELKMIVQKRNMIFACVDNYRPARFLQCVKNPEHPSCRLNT
Kind of test: ELISA, biotinylated recombinant mouse CD38 captured on a streptavidin plate, OD 450 nm.
Procedure: as §3

The target of test [7] is T3, recombinant human CD38 protein. Kind of test: ELISA, biotinylated recombinant human CD38 captured on a streptavidin plate, OD 450 nm.
Test [8] has the same target. Kind of test: ELISA on recombinant human CD38, OD 450 nm. The source holds these as a separate data set.
Procedure: as §3

Data on 13 molecules can be found in patent US20250277051A1 (HANGZHOU UNOGEN BIOTECH, published 2025).

T1 sequence (Q95LI5 22-117, stated change not applied, chain 1 of 2): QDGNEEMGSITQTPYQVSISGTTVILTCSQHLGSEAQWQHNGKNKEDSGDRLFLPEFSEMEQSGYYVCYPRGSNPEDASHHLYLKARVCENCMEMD
T1 sequence (Q95LI8 22-105, stated change not applied, chain 2 of 2): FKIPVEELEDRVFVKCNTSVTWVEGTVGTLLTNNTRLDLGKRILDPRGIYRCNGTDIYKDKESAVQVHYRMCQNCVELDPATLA
T2 sequence (P07766 23-126, stated change not applied, chain 1 of 2): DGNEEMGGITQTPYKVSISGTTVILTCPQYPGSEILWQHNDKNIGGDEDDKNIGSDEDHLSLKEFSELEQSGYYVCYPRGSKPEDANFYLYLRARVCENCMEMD
T2 sequence (P04234 22-105, stated change not applied, chain 2 of 2): as the sequence (Q95LI8 22-105, stated change not applied, chain 2 of 2) above, with V5I, K15N, V20I, T32S, N33D, N34I, A64T, N74S, L83V counted along it

B1: SP34 (antibody, V domains shown)
VH: EVQLVESGGGLVQPGGSLKLSCAASGFTFNTYAMNWVRQAPGKGLEWVARIRSKYNNYATYYADSVKDRFTISRDDSKNTAYLQMNNLKTEDTAVYYCVRHGNFGNSYVSWFAYWGQGTLVTVSS
VL: QTVVTQEPSLTVSPGGTVTLTCRSSTGAVTTSNYANWVQQKPGQAPRGLIGGTNKRAPGTPARFSGSLLGGKAALTLSGVQPEDEAEYYCALWYSNLWVFGGGTKLTVL
notes: also called positive control anti-CD3 antibody
Consider B1, for which the binding result in test [1] was “binds”.

B2: SP34 v8 (antibody, V domains shown)
VH: EVQLVESGGGLVQPGGSLKLSCAASGFTFNTYAMNWVRQAPGKGLEWVARIRSKYNNYATYYADSVKDRFTISRDDSKNTAYLQMNNLKTEDTAVYYCVRHGNFGNSYVAWFAYWGQGTLVTVSS
VL: QTVVTQEPSLTVSPGGTVTLTCRSSTGAVTTSNYANWVQQKPGQAPRGLIGGTNKRAPGTPARFSGSLLGGKAALTLSGVQPEDEAEYYCALWYSNLWVFGGGTKLTVL
notes: also called SP34 v8 LC; SP34 v8 HC
One may read the EC50 (read off the curve) as the concentration that produces a half-maximal response. As to B2, the binding result in test [2] is “binds”. Besides, the “EC50 (read off the curve)” value in test [3] was about 0.08 nM.

B3: SEQ ID NO 17 (VHH)
VHH: QVQLVQSGAEVKKPGASVKVSCKASGSRFDNYAMGWFRQAPGQEREFMGAISWSSGTTRYAQKVQGRVTMTRDTSTSTVYMELSSLRSEDTAVYYCAARYQPRYYDSGDMDGYEYDNWGQGTLVTVSS
notes: VHO single domain; also called CD38 5FIO VHO2
On to B3, for which the binding result in test [4] is recorded as “binds”.

B4: SEQ ID NO 4 (VHH)
VHH: EVQLQESGGGLVQAGHSLRLSCVGSGSRFDNYAMGWFRQAPGKEREFVAAISWSSGTTRYLDTVKGRFTISRDNAKSTVYLQMNSLKPEDTAVYYCAARYQPRYYDSGDMDGYEYDNWGQGTQVTVSS
notes: Variable-heavy-only (VHO) single domain; also called CD38 5FIO VHO1
For the molecule B4, in test [5], the “EC50 (read off the curve)” value was about 0.4 nM. For the same molecule, the binding result in test [6] and in test [7] was “binds” throughout.

B5: SEQ ID NO 20 (VHH)
VHH: DVQLQESGGGLVQAGHSLRLSCVGSGDRFDNYAMGWFRQAPGKEREFVAAISWSSGTTRYLDTVKGRFTISRDNAKSTVYLQMNSLKPEDTAVYYCAARYQNRFYDSGDMDGYEYDNWGQGTQVTVSS
notes: VHO single domain; also called CD38 5FIO VHO5
Consider B5, for which the binding result in test [4] was “binds”.

B6: SEQ ID NO: 4×SP34 v8 (bispecific antibody, V domains shown)
VHH: EVQLQESGGGLVQAGHSLRLSCVGSGSRFDNYAMGWFRQAPGKEREFVAAISWSSGTTRYLDTVKGRFTISRDNAKSTVYLQMNSLKPEDTAVYYCAARYQPRYYDSGDMDGYEYDNWGQGTQVTVSS
VH: EVQLVESGGGLVQPGGSLKLSCAASGFTFNTYAMNWVRQAPGKGLEWVARIRSKYNNYATYYADSVKDRFTISRDDSKNTAYLQMNNLKTEDTAVYYCVRHGNFGNSYVAWFAYWGQGTLVTVSS
VL: QTVVTQEPSLTVSPGGTVTLTCRSSTGAVTTSNYANWVQQKPGQAPRGLIGGTNKRAPGTPARFSGSLLGGKAALTLSGVQPEDEAEYYCALWYSNLWVFGGGTKLTVL
notes: CD38 VHO arm paired with a CD3 arm
Take B6: the “EC50 (read off the curve)” value in test [7] is about 0.1 nM.

B7: SEQ ID NO 5 (VHH)
VHH: EVQLQESGGGLVQAGGSLRLSCTGSGRTFRNYPMAWFRQAPGKEREFVAGITWVGASTLYADFAKGRFTISRDNAKNTVYLQMNSLKPEDTAVYSCAAGRGIVAGRIPAEYADWGQGTQVTVSS
notes: also called CD38 5F1K VHO1
With B7, the binding result was “binds” in test [5], “no binding (tested: about 60 nM)” in test [6] and “binds” in test [7].

B8: SEQ ID NO 24 (VHH)
VHH: DVQLQESGGGLVQAGGSLRLSCTGSGRTFYLYPMAWFRQAPGKEREFVAGITWVGASTNYADFAKGRFTISRDNAKNTVYLQMNSLKPEDTAVYSCAAGRGITAGRIPAEYADWGQGTQVTVSS
notes: VHO single domain; also called CD38 5FIOK VHO5
On to B8, for which the binding result in test [4] is “binds”.

B9: SEQ ID NOs: 2 and 3 (mAb) (antibody, V domains shown)
VH: QVQLVQSGAEVAKPGTSVKLSCKASGYTFTDYWMQWVKQRPGQGLEWIGTIYPGDGDTGYAQKFQGKATLTADKSSKTVYMHLSSLASEDSAVYYCARGDYYGSNSLDYWGQGTSVTVSS
VL: DIVMTQSHLSMSTSLGDPVSITCKASQDVSTVVAWYQQKPGQSPRRLIYSASYRYIGVPDRFTGSGAGTDFTFTISSVQAEDLAVYYCQQHYSPPYTFGGGTKLEIK
notes: also called CD38 LC1; CD38 HC1
In the case of B9, the binding result in test [6] is reported as “no binding (tested: about 60 nM)”.

B10: SEQ ID NO 29 (VHH)
VHH: DVQLQESGGGSVQAGGSLTLSCTASGWLFRLASMGWYRQAPGKEREMIAVITTGGRTNYKDSVQGRFIITRDNTKSTVTLQMNRLKPEDTAVYYCNTSMPVVGADEWGQGTRVTVSS
notes: VHO single domain; also called CD38 5F21 VHO5
Turning to B10, the binding result in test [8] is recorded as “binds”.

B11: SEQ ID NO 6 (VHH)
VHH: EVQLQESGGGSVQAGGSLTLSCTASGLLFRLASMGWYRQAPGKERELIATITVGGKTNYKDSVQGRFIITRDNTGDNTKSTVTLQMNRLKPEDTAVYYCNTASPAVGADTWGQGTRVTVSS
notes: also called CD38 5F21 VHO1
As to B11, the binding result in test [5] is “no binding (tested: about 30 nM)”; in test [6], “no binding (tested: about 60 nM)”; in test [7], “binds”.

B12: SEQ ID NO 18 (VHH)
VHH: QVTLKESGPVLVKPTETLTLTCTGSGSRFDNYAMGWFRQPPGKEREFLAAISWSSGTTRYSTSLKSRLTISRDTSKSQVVLTMTNMDPVDTATYYCAARYQPRYYDSGDMDGYEYDNWGQGTLVTVSS
notes: VHO single domain; also called CD38 5FIO VHO3
As for B12, the binding result in test [4] was “binds”.

B13: SEQ ID NO 21 (VHH)
VHH: QMQLVQSGAEVKKTGSSVKVSCKGSGRTFRNYPMAWFRQAPGQEREFMGGITWVGASTLYAQKAQDRVTITRDRSMSTAYMELSSLRSEDTAMYSCAAGRGIVAGRIPAEYADWGQGTLVTVSS
notes: VHO single domain; also called CD38 5FIOK VHO2
Regarding B13, the binding result in test [4] is reported as “binds”.
